The text below walks through data of PMC3587840 (Nature, 2010).

In experiment [1] the target is T1, human SEMA4D_(ecto), C-terminal His-tag (human, UniProt Q92854 22-677).
T1 sequence: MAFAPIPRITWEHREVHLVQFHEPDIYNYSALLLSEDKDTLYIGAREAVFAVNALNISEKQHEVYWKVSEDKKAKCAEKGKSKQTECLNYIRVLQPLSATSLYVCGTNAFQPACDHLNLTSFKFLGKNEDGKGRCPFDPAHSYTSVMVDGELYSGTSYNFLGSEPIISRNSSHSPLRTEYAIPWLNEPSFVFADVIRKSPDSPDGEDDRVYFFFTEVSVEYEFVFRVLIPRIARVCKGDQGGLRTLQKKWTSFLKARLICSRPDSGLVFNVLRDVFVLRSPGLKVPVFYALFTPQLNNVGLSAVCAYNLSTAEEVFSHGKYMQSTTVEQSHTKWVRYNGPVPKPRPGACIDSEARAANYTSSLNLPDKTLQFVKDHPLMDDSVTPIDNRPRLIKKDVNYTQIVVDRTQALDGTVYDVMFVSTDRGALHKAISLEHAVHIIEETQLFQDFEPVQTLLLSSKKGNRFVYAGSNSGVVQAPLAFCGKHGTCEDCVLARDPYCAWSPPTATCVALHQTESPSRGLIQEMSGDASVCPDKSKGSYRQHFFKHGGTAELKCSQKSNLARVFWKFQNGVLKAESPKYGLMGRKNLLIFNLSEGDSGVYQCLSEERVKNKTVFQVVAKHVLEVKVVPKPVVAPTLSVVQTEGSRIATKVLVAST
Description: SPR.

Experiment [2] concerns the target T2, SEMA4D_(ecto)(F244N/F246S) (human, UniProt Q92854 22-677, F244N | F246S).
T2 sequence: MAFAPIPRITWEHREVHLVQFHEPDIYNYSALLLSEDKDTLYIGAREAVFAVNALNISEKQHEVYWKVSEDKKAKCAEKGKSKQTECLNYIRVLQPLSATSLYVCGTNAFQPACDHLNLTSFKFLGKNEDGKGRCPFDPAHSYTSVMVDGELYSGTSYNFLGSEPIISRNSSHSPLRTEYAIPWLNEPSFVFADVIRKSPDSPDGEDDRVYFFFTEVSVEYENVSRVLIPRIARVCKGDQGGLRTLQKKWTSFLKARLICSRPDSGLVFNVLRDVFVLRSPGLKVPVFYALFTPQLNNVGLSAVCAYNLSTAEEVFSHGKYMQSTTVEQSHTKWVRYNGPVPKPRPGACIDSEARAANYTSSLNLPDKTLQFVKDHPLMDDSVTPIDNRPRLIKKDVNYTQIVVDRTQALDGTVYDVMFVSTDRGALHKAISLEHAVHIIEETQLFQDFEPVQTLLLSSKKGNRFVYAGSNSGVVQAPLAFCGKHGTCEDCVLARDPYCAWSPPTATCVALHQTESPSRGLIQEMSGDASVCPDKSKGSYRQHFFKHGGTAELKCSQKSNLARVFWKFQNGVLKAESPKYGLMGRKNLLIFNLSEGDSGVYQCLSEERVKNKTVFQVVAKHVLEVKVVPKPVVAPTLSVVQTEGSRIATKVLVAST
Description: SPR. For orientation: Surface plasmon resonance follows binding to a sensor surface in real time, without labels.

B1: human PLXNB1_(1–2), biotinylated at an engineered C-terminal tag (domain or fragment)
chain: LQPLPPTAFTPNGTYLQHLARDPTSGTLYLGATNFLFQLSPGLQLEATVSTGPVLDSRDCLPPVMPDECPQAQPTNNPNQLLLVSPGALVVCGSVHQGVCEQRRLGQLEQLLLRPERPGDTQYVAANDPAVSTVGLVAQGLAGEPLLFVGRGYTSRGVGGGIPPITTRALWPPDPQAAFSYEETAKLAVGRLSEYSHHFVSAFARGASAYFLFLRRDLQAQSRAFRAYVSRVCLRDQHYYSYVELPLACEGGRYGLIQAAAVATSREVAHGEVLFAAFSSAAPPTVGRPPSAAAGASGASALCAFPLDEVDRLANRTRDACYTREGRAEDGTEVAYIEYDVNSDCAQLPVDTLDAYPCGSDHTPSPMASRVPLEATPILEWPGIQLTAVAVTMEDGHTIAFLGDSQGQLHRVYLGPGSDGHPYSTQSIQQGSAVSRDLTFDGTFEHLYVMTQSTLLKVPVASCAQHLDCASCLAHRDPYCGWCVLLGRCSRRSECSRGQGPEQWLWSFQPELGCLQ
modifications: biotin on the engineered C-terminal tag (enzymatic)
As for B1, the binding result in experiment [1] is “binds”. In experiment [2], this molecule showed a Kd of 5.5 µM.

What is called Kd is the concentration at which binding is half-saturated. A higher Kd goes with weaker binding.
